In US20250066503A1, “CELL INJURY INDUCING THERAPEUTIC DRUG FOR USE IN CANCER THERAPY” (CHUGAI SEIYAKU KABUSHIKI KAISHA, priority 2016, published 2025):

target: T1, human GPC3 (human, UniProt P51654 25-563); test: SPR
T1 construct: range 25-563; soluble analyte; also called soluble human GPC3; glypican 3
T1 sequence (P51654 25-563 limits assumed): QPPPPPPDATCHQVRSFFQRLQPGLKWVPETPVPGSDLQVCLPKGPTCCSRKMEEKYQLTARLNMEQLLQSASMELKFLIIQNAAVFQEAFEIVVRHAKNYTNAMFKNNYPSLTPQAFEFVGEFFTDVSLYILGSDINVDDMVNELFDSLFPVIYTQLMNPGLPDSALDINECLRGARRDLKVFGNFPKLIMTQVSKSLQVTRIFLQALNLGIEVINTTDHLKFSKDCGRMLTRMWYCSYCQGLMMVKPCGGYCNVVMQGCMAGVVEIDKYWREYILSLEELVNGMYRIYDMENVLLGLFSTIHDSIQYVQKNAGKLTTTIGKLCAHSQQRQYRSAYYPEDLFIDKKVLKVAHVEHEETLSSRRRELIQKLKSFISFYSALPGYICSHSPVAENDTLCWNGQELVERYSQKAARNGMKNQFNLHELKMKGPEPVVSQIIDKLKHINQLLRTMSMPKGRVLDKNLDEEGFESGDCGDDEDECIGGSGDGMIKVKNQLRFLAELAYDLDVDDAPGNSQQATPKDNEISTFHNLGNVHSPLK

Kd [nM]	Binder
0.00185	GCH057-G1dh/none-Hi-Kn010G3/L0222-k0 (antibody, V domains shown, one-arm) VH: QVQLVQSGAEVKKPGASVTVSCKASGYTFTDYEMHWIRQPPGEGLEWIGAIDGETPDTAYSEKFEGRVTLTADKSTSTAYMELSSLTSEDTAVYYCTRFYSYTYWGQGTLVTVSS VL: DIVMTQSPLSLPVTPGEPASISCRSSQSPVHSNRNTYIQWYQQKPGQAPRLLIYKVSNRFSGVPDRFSGSGSGTDFTLKISRVEAEDVGVYYCYQGTQVPYTFGQGTKLEIKR
4.29	GCH066-G1dh/none-Hi-Kn010G3/L0000-k0 (antibody, V domains shown, one-arm) VH: QVQLVQSGAEVKKPGASVTVSCKASGYTFTDYEMHWIRQPPGEGLEWIGAIDGWTPDTAYSEKFKGRVTLTADKSTSTAYMELSSLTSEDTAVYYCTRFYSYTYWGQGTLVTVSS VL: DIVMTQSPLSLPVTPGEPASISCRSSQSLVHSNRNTYLHWYQQKPGQAPRLLIYKVSNRFSGVPDRFSGSGSGTDFTLKISRVEAEDVGVYYCGQGTQVPYTFGQGTKLEIKR
0.91	GCH073-G1dh/none-Hi-Kn010G3/L0011-k0 (antibody, V domains shown, one-arm) VH: QVQLVQSGAEVKKPGASVTVSCKASGYTFTDYEMHWIRQPPGEGLEWIGAIDGPTPDTAYSQKFEGRVTLTADKSTSTAYMELSSLTSEDTAVYYCTRFYSYTYWGQGTLVTVSS VL: DIVMTQSPLSLPVTPGEPASISCRSSQPLVHSNRNTYLHWYQQKPGQAPRLLIYKVSNRFSGVPDRFSGSGSGTDFTLKISRVEAEDVGVYYCGQGTQVPYTFGQGTKLEIKR
5.13	GCH061-G1dh/none-Hi-Kn010G3/L0000-k0 (antibody, V domains shown, one-arm) VH: QVQLVQSGAEVKKPGASVKVSCKASGYTFTDYEMHWVRQAPGQGLEWIGAIDGKTPDTAYSQKFKGRVTLTADKSTSTAYMELSSLTSEDTAVYYCTRFYSYTYWGQGTLVTVSS VL: DIVMTQSPLSLPVTPGEPASISCRSSQSLVHSNRNTYLHWYQQKPGQAPRLLIYKVSNRFSGVPDRFSGSGSGTDFTLKISRVEAEDVGVYYCGQGTQVPYTFGQGTKLEIKR
6.23	GCH068-G1dh/none-Hi-Kn010G3/L0000-k0 (antibody, V domains shown, one-arm) VH: QVQLVQSGAEVKKPGASVTVSCKASGYTFTDYEMHWIRQPPGEGLEWIGAIDGKTPDTAYSEKFKGRVTLTADKSTSTAYMELSSLTSEDTAVYYCTRFYSYTYWGQGTLVTVSS VL: DIVMTQSPLSLPVTPGEPASISCRSSQSLVHSNRNTYLHWYQQKPGQAPRLLIYKVSNRFSGVPDRFSGSGSGTDFTLKISRVEAEDVGVYYCGQGTQVPYTFGQGTKLEIKR
4.24	GCH099-G1dh/none-Hi-Kn010G3/L0000-k0 (antibody, V domains shown, one-arm) VH: QVQLVQSGAEVKKPGASVTVSCKASGYTFTDYEMHWVRQAPGEGLEWMGAIDGWTPDTAYSEKFKGRVTLTADKSTSTAYMELSSLTSEDTAVYYCTRFYSYTYWGQGTLVTVSS VL: DIVMTQSPLSLPVTPGEPASISCRSSQSLVHSNRNTYLHWYQQKPGQAPRLLIYKVSNRFSGVPDRFSGSGSGTDFTLKISRVEAEDVGVYYCGQGTQVPYTFGQGTKLEIKR
5.24	GCH067-G1dh/none-Hi-Kn010G3/L0000-k0 (antibody, V domains shown, one-arm) VH: QVQLVQSGAEVKKPGASVTVSCKASGYTFTDYEMHWIRQPPGEGLEWIGAIDGYTPDTAYSEKFKGRVTLTADKSTSTAYMELSSLTSEDTAVYYCTRFYSYTYWGQGTLVTVSS VL: DIVMTQSPLSLPVTPGEPASISCRSSQSLVHSNRNTYLHWYQQKPGQAPRLLIYKVSNRFSGVPDRFSGSGSGTDFTLKISRVEAEDVGVYYCGQGTQVPYTFGQGTKLEIKR
1.77	GCH098-G1dh/none-Hi-Kn010G3/L0000-k0 (antibody, V domains shown, one-arm) VH: QVQLVQSGAEVKKPGASVTVSCKASGYTFTDYEMHWVRQAPGEGLEWMGAIDGPTPDTAYSEKFKGRVTLTADKSTSTAYMELSSLTSEDTAVYYCTRFYSYTYWGQGTLVTVSS VL: DIVMTQSPLSLPVTPGEPASISCRSSQSLVHSNRNTYLHWYQQKPGQAPRLLIYKVSNRFSGVPDRFSGSGSGTDFTLKISRVEAEDVGVYYCGQGTQVPYTFGQGTKLEIKR
3.73	GCH062-G1dh/none-Hi-Kn010G3/L0000-k0 (antibody, V domains shown, one-arm) VH: QVQLVQSGAEVKKPGASVKVSCKASGYTFTDYEMHWIRQPPGQGLEWMGAIDGKTPDTAYSQKFKGRVTLTADKSTSTAYMELSSLTSEDTAVYYCTRFYSYTYWGQGTLVTVSS VL: DIVMTQSPLSLPVTPGEPASISCRSSQSLVHSNRNTYLHWYQQKPGQAPRLLIYKVSNRFSGVPDRFSGSGSGTDFTLKISRVEAEDVGVYYCGQGTQVPYTFGQGTKLEIKR
5.89	GCH094-G1dh/none-Hi-Kn010G3/L0000-k0 (antibody, V domains shown, one-arm) VH: QVQLVQSGAEVKKPGASVTVSCKASGYTFTDYEMHWVRQAPGEGLEWMGAIDGETPDTAYSEKFKGRVTLTADKSTSTAYMELSSLTSEDTAVYYCTRFYSYTYWGQGTLVTVSS VL: DIVMTQSPLSLPVTPGEPASISCRSSQSLVHSNRNTYLHWYQQKPGQAPRLLIYKVSNRFSGVPDRFSGSGSGTDFTLKISRVEAEDVGVYYCGQGTQVPYTFGQGTKLEIKR
0.802	GCH098-G1dh/none-Hi-Kn010G3/L0011-k0 (antibody, V domains shown, one-arm) VH: QVQLVQSGAEVKKPGASVTVSCKASGYTFTDYEMHWVRQAPGEGLEWMGAIDGPTPDTAYSEKFKGRVTLTADKSTSTAYMELSSLTSEDTAVYYCTRFYSYTYWGQGTLVTVSS VL: DIVMTQSPLSLPVTPGEPASISCRSSQPLVHSNRNTYLHWYQQKPGQAPRLLIYKVSNRFSGVPDRFSGSGSGTDFTLKISRVEAEDVGVYYCGQGTQVPYTFGQGTKLEIKR
1.17	GCH094-G1dh/none-Hi-Kn010G3/L0201-k0 (antibody, V domains shown, one-arm) VH: QVQLVQSGAEVKKPGASVTVSCKASGYTFTDYEMHWVRQAPGEGLEWMGAIDGETPDTAYSEKFKGRVTLTADKSTSTAYMELSSLTSEDTAVYYCTRFYSYTYWGQGTLVTVSS VL: DIVMTQSPLSLPVTPGEPASISCRSSQPPVHSNRNTYLHWYQQKPGQAPRLLIYKVSNRFSGVPDRFSGSGSGTDFTLKISRVEAEDVGVYYCGQGTQVPYTFGQGTKLEIKR
2.78	GCH099-G1dh/none-Hi-Kn010G3/L0011-k0 (antibody, V domains shown, one-arm) VH: QVQLVQSGAEVKKPGASVTVSCKASGYTFTDYEMHWVRQAPGEGLEWMGAIDGWTPDTAYSEKFKGRVTLTADKSTSTAYMELSSLTSEDTAVYYCTRFYSYTYWGQGTLVTVSS VL: DIVMTQSPLSLPVTPGEPASISCRSSQPLVHSNRNTYLHWYQQKPGQAPRLLIYKVSNRFSGVPDRFSGSGSGTDFTLKISRVEAEDVGVYYCGQGTQVPYTFGQGTKLEIKR
1.29	GCH099-G1dh/none-Hi-Kn010G3/L0201-k0 (antibody, V domains shown, one-arm) VH: QVQLVQSGAEVKKPGASVTVSCKASGYTFTDYEMHWVRQAPGEGLEWMGAIDGWTPDTAYSEKFKGRVTLTADKSTSTAYMELSSLTSEDTAVYYCTRFYSYTYWGQGTLVTVSS VL: DIVMTQSPLSLPVTPGEPASISCRSSQPPVHSNRNTYLHWYQQKPGQAPRLLIYKVSNRFSGVPDRFSGSGSGTDFTLKISRVEAEDVGVYYCGQGTQVPYTFGQGTKLEIKR
0.000642	GCH060-G1dh/none-Hi-Kn010G3/L0222-k0 (antibody, V domains shown, one-arm) VH: QVQLVQSGAEVKKPGASVTVSCKASGYTFEDYEMHWIRQPPGEGLEWIGAIDGETPDTAYSQKFEGRVTLTADKSTSTAYMELSSLTEEDTAVYYCTRFYSYTYWGQGTLVTVSS VL: DIVMTQSPLSLPVTPGEPASISCRSSQSPVHSNRNTYIQWYQQKPGQAPRLLIYKVSNRFSGVPDRFSGSGSGTDFTLKISRVEAEDVGVYYCYQGTQVPYTFGQGTKLEIKR
0.035	GCH073-G1dh/none-Hi-Kn010G3/L0201-k0 (antibody, V domains shown, one-arm) VH: QVQLVQSGAEVKKPGASVTVSCKASGYTFTDYEMHWIRQPPGEGLEWIGAIDGPTPDTAYSQKFEGRVTLTADKSTSTAYMELSSLTSEDTAVYYCTRFYSYTYWGQGTLVTVSS VL: DIVMTQSPLSLPVTPGEPASISCRSSQPPVHSNRNTYLHWYQQKPGQAPRLLIYKVSNRFSGVPDRFSGSGSGTDFTLKISRVEAEDVGVYYCGQGTQVPYTFGQGTKLEIKR
4.14	GCH064-G1dh/none-Hi-Kn010G3/L0000-k0 (antibody, V domains shown, one-arm) VH: QVQLVQSGAEVKKPGASVKVSCKASGYTFTDYEMHWIRQPPGQGLEWIGAIDGKTPDTAYSQKFKGRVTLTADKSTSTAYMELSSLRSEDTAVYYCTRFYSYTYWGQGTLVTVSS VL: DIVMTQSPLSLPVTPGEPASISCRSSQSLVHSNRNTYLHWYQQKPGQAPRLLIYKVSNRFSGVPDRFSGSGSGTDFTLKISRVEAEDVGVYYCGQGTQVPYTFGQGTKLEIKR
0.0774	GCH065-G1dh/none-Hi-Kn010G3/L0201-k0 (antibody, V domains shown, one-arm) VH: QVQLVQSGAEVKKPGASVTVSCKASGYTFTDYEMHWIRQPPGEGLEWIGAIDGPTPDTAYSEKFKGRVTLTADKSTSTAYMELSSLTSEDTAVYYCTRFYSYTYWGQGTLVTVSS VL: DIVMTQSPLSLPVTPGEPASISCRSSQPPVHSNRNTYLHWYQQKPGQAPRLLIYKVSNRFSGVPDRFSGSGSGTDFTLKISRVEAEDVGVYYCGQGTQVPYTFGQGTKLEIKR
0.111	GCH098-G1dh/none-Hi-Kn010G3/L0201-k0 (antibody, V domains shown, one-arm) VH: QVQLVQSGAEVKKPGASVTVSCKASGYTFTDYEMHWVRQAPGEGLEWMGAIDGPTPDTAYSEKFKGRVTLTADKSTSTAYMELSSLTSEDTAVYYCTRFYSYTYWGQGTLVTVSS VL: DIVMTQSPLSLPVTPGEPASISCRSSQPPVHSNRNTYLHWYQQKPGQAPRLLIYKVSNRFSGVPDRFSGSGSGTDFTLKISRVEAEDVGVYYCGQGTQVPYTFGQGTKLEIKR
1.41	GCH065-G1dh/none-Hi-Kn010G3/L0000-k0 (antibody, V domains shown, one-arm) VH: QVQLVQSGAEVKKPGASVTVSCKASGYTFTDYEMHWIRQPPGEGLEWIGAIDGPTPDTAYSEKFKGRVTLTADKSTSTAYMELSSLTSEDTAVYYCTRFYSYTYWGQGTLVTVSS VL: DIVMTQSPLSLPVTPGEPASISCRSSQSLVHSNRNTYLHWYQQKPGQAPRLLIYKVSNRFSGVPDRFSGSGSGTDFTLKISRVEAEDVGVYYCGQGTQVPYTFGQGTKLEIKR
2	GCH073-G1dh/none-Hi-Kn010G3/L0000-k0 (antibody, V domains shown, one-arm) VH: QVQLVQSGAEVKKPGASVTVSCKASGYTFTDYEMHWIRQPPGEGLEWIGAIDGPTPDTAYSQKFEGRVTLTADKSTSTAYMELSSLTSEDTAVYYCTRFYSYTYWGQGTLVTVSS VL: DIVMTQSPLSLPVTPGEPASISCRSSQSLVHSNRNTYLHWYQQKPGQAPRLLIYKVSNRFSGVPDRFSGSGSGTDFTLKISRVEAEDVGVYYCGQGTQVPYTFGQGTKLEIKR
5.7	GCH059-G1dh/none-Hi-Kn010G3/L0000-k0 (antibody, V domains shown, one-arm) VH: QVQLVQSGAEVKKPGASVTVSCKASGYTFTDYEMHWIRQPPGEGLEWIGAIDGETPDTAYSQKFEGRVTLTADKSTSTAYMELSSLTEEDTAVYYCTRFYSYTYWGQGTLVTVSS VL: DIVMTQSPLSLPVTPGEPASISCRSSQSLVHSNRNTYLHWYQQKPGQAPRLLIYKVSNRFSGVPDRFSGSGSGTDFTLKISRVEAEDVGVYYCGQGTQVPYTFGQGTKLEIKR
